Biological target: GST-PSD-95 (rat, UniProt P31016 1-724)
Assay: co-IP

Sequence of GST-PSD-95 (P31016 whole entry): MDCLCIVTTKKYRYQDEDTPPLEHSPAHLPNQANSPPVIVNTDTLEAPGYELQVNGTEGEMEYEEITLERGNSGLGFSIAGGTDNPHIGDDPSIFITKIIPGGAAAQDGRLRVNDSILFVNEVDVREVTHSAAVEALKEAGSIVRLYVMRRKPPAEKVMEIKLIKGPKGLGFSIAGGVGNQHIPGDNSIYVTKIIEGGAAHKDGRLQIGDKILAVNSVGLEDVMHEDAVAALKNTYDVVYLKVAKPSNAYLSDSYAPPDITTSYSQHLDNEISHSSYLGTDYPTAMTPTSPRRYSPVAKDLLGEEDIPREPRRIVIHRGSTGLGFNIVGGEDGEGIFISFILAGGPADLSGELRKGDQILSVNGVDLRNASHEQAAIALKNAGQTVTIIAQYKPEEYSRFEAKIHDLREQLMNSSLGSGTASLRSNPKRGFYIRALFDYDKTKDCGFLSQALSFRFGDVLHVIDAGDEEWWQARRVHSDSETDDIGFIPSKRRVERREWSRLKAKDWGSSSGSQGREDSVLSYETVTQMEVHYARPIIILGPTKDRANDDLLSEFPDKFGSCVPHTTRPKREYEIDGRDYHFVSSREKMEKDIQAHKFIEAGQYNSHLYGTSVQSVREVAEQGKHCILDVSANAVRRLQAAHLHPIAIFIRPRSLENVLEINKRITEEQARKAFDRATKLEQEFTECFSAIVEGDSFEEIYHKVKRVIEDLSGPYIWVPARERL

binding result: binds
B1: GST-ILK (enzyme, rat, UniProt Q99J82 1-452, looked up)
chain: MDDIFTQCREGNAVAVRLWLDNTENDLNQGDDHGFSPLHWACREGRSAVVEMLIMRGARINVMNRGDDTPLHLAASHGHRDIVQKLLQYKADINAVNEHGNVPLHYACFWGQDQVAEDLVANGALVSICNKYGEMPVDKAKAPLRELLRERAEKMGQNLNRIPYKDTFWKGTTRTRPRNGTLNKHSGIDFKQLNFLAKLNENHSGELWKGRWQGNDIVVKVLKVRDWSTRKSRDFNEECPRLRIFSHPNVLPVLGACQAPPAPHPTLITHWMPYGSLYNVLHEGTNFVVDQSQAVKFALDMARGMAFLHTLEPLIPRHALNSRSVMIDEDMTARISMADVKFSFQCPGRMYAPAWVAPEALQKKPEDTNRRSADMWSFAVLLWELVTREVPFADLSNMEIGMKVALEGLRPTIPPGISPHVCKLMKICMNEDPAKRPKFDMIVPILEKMQDK

Reference: publication PMC3773608 (Journal of molecular neuroscience : MN, 2009)
